Reference: the nanobody polyreactivity screen of Harvey et al. (2022)

Test: yeast display, Sf9 membrane polyspecificity reagent, FACS + sequencing; frameworks hold sequencing errors
Outline: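 In a synthetic yeast display library (Saccharomyces cerevisiae BJ5465), nanobody expression was induced with galactose for 36–48 hours. FACS gates were set low and high (top ~1%) using anti-HA fluorescence for expression and streptavidin fluorescence for binding of the Sf9 membrane reagent. Each polyreactivity label is drawn from the gate of origin.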

## QVQLVESGGGLVQAGGSLRLTCAASGRIFRRNAMGGYRQAPGKEREMVATITSGSSTNYADSVKGRFTISRDNAKNTVYLQMHSLKPEDTAVYYCAKLPWKYRVGYYRNQQTYDYWGQGTQVTVSS
  polyreactivity (PSR sort gate): high polyreactivity

## QVQLVESGGGLVQAGGSLRLTCAASGRIFYPYPMGWYRQAPGKERELVAAIDKGGGSTYYADSVKGRFSISRDNAKNTVYLQMNSLKPEDTAVFYCAAGWEYPYDYWGQGTQVTVSS
  polyreactivity (PSR sort gate): low polyreactivity

## QVQLVESGGGLVQAGGSLRLTCAASGRILRINTMGWYRQAPGKEMELVAAISLSGGTTYYAHSVKGRFTISRDNAKNTVYLQMNSVKPEDTAVYYCYKAIWYAEYDYWGQGTQVTVSS
  polyreactivity (PSR sort gate): low polyreactivity

## QVQLVESGGGLVQAGGSLRLTCAASGRISKIYAMGWYRQAPGKERELVAAINSGGSTNYADSVKGRFTISRDNAKNTVYLQMNSLKPEDTAVYYCAATFKSGMDFWGQGTQVTVSS
  polyreactivity (PSR sort gate): high polyreactivity

## QVQLVESGGGLVQAGGSLRLTCAASGRTFGHYAMGWYRQAPGKERELVAAISQRGGGTYYADSVKGRFTISRDNAKNTVYLQMNSLKPEDTAVYYCAADFGNSPYIKDYYYWGQGTQVTVSS
  polyreactivity (PSR sort gate): low polyreactivity

## QVQLVESGGGLVQAGGSLRLTCAASGRTFGKYAMGWYRQAPGKERELVAAISSSGSTNYADSVKGRFTISRDNAKNTDYLQMNSLKPEDTAVYYCAAVQPGQSTVAYDYWGQGTQVTVSS
  polyreactivity (PSR sort gate): high polyreactivity

## QVQLVESGGGLVQAGGSLRLTCAASGRTFGVNAMGWYRPAPGKERQLVAAITGGGSTYYADSVKGRFTISRDNAKNTVYLQMNSLKPDDTAVYYCNADRRRRSGGFAGWHFERNDYWGQGTQVTVSS
  polyreactivity (PSR sort gate): low polyreactivity

## QVQLVESGGGLVQAGGSLRLTCAASGRTFIVYAMGWYRQAPGKERELVARISSGSRTSYADSVTGRFTISRDNAKNTVYLQMNSLKPEDTAVYYFAKSRVIKYEFDYWGQGTQVTLSS
  polyreactivity (PSR sort gate): low polyreactivity

## QVQLVESGGGLVQAGGSLRLTCAASGRTFSVNAMGWYRQAPGKERELVASINWSGGSTYYADSVKGRFTISRDNAKNTVYLQMNSLKPEDTAVYYCAADHSYWDWWSYYYWGQGTQVTVSS
  polyreactivity (PSR sort gate): low polyreactivity

## QVQLVESGGGLVQAGGSLRLTCAASGRTFWRYAMGWYRQAPGKERELVAAITSGGGSTYYADSVKGRFTISRDNAKNTVYLQMTSLKPEDTAVYYCNRAGRGRSFKGDYWGQGTQVTVSS
  polyreactivity (PSR sort gate): high polyreactivity

## QVQLVESGGGLVQAGGSLRLTCAASGRTFYPYAMGWYRPAPGKERELVAAISSGVRTYYADSVKGRFTISRDNAKNTVYLQMNSLKPDDTAVYYCAARRSIWGQGTQVTVSS
  polyreactivity (PSR sort gate): high polyreactivity

## QVQLVESGGGLVQAGGSLRLTCAASGRTYFYNAMGWYIKAPGKERELVAAISTNGGSTYYADSVNGRFTISRDNAKNTVYLQMNSLKPEDTAVYYCNTYAKPHRSGGGLGGHYYWGQGTQVTVSS
  polyreactivity (PSR sort gate): low polyreactivity

## QVQLVESGGGLVQAGGSLRLTCAASGSIFALYAMGWYRQAPGKERELVAANADSVKGRFTISRDNAKNTVYLQMNSLKPEETAVYYCAKDITGGSGLGSWIYSEYDYWGQGTQVTVSS
  polyreactivity (PSR sort gate): low polyreactivity

## QVQLVESGGGLVQAGGSLRLTCAASGSIFDYYAMGWYRQAPGKEWELVAAISNGGTTNYADSVKGRFTLSRDNAKNTVYLQMNRLKPEDTAVYYCNADSALYDKAVIYSEYDYWGQGTQVTVSS
  polyreactivity (PSR sort gate): low polyreactivity

## QVQLVESGGGLVQAGGSLRLTCAASGSIFFPNTMGWSRQAPGKERELVASISYSGGSTYYADSVKGRFTISRDIAKNSVYLQMNSLKPEDTAVYYCARTYWGDRYQFSSNGYEYWGQGTQVTVSS
  polyreactivity (PSR sort gate): high polyreactivity

## QVQLVESGGGLVQAGGSLRLTCAASGSIFFQNAMGWYRQAPGKERELVATITSSVGSTYYADSVKGRFTISRDNAKNTVYFQMNSLKPEDTAVYYCNVRVFSAALWYTYFGYDYWGQGTQVTVSS
  polyreactivity (PSR sort gate): low polyreactivity

## QVQLVESGGGLVQAGGSLRLTCAASGSIFLDYAMGWYRQAPAKERELVAGITISGGSTYYADSVKGRFTISRDNAKNTVYLQMNSLKPEDTAVYYCAKVAPRSSSSQEYYYWGQGTQVTVSS
  polyreactivity (PSR sort gate): low polyreactivity

## QVQLVESGGGLVQAGGSLRLTCAASGSIFQRNAIGWYRQAPGKERELVAAITASGGRTYYADSVKGRFTISRDNAKNTVYLQMNSLKPEDTAVYYCAARGRTYCGGRTYDYWGHGTQVTVSS
  polyreactivity (PSR sort gate): high polyreactivity

## QVQLVESGGGLVQAGGSLRLTCAASGSIFRYYAMGWYRQAPGKERELVATISSGGRTYYADSVKGRFTISRDNAKNTVYLQMNSLKPEDTAVYYCAAVRLTWTAKYNYWGQGTQVTVSS
  polyreactivity (PSR sort gate): high polyreactivity

## QVQLVESGGGLVQAGGSLRLTCAASGSIFTGYTMGWYRQAPGKERELVASISRRGGRTYYADSVKGRFTISRDNAKNTVYLQMNSLKPEDTAVYYCAVDRVPWRYQDSYNYWGQGTQVTVSS
  polyreactivity (PSR sort gate): high polyreactivity

## QVQLVESGGGLVQAGGSLRLTCAASGSIFYPYSMGRYRPAPGKERELVAAISSSGGSTYYADSVKGRFTISRDNAKNTVYLQMNSLKPEDTADYNCAARGKKHAYDYWGQGTQVTVSS
  polyreactivity (PSR sort gate): low polyreactivity

## QVQLVESGGGLVQAGGSLRLTCAASGSIFYVNAMGWYRQAPGKERELVAAISVRGGRTYYADSVKGRFTISRDNAKNTVYLQMNSLKPEDTAVYYCATRISTVGRYDYWGQGTQVTVSS
  polyreactivity (PSR sort gate): high polyreactivity

## QVQLVESGGGLVQAGGSLRLTCAASGSTFEVYAMGWYRQAPGKEREFVAAITVDGGSTYYADSVKGRFTISRDNAKNTVYLQMNSLKPEDTAVYYCAADSGSWEYYYWGQGTQVTVSS
  polyreactivity (PSR sort gate): low polyreactivity

## QVQLVESGGGLVQAGGSLRLTCAASGSTFGYYAMGWNRQATGKERELVASITSDGSTNYADSVKGRFTISRDNAKNTVYLQMNSLKPEDTAVYYCAAYVWRYWHEYDYWGQGTQVTVSS
  polyreactivity (PSR sort gate): low polyreactivity

## QVQLVESGGGLVQAGGSLRLTCAASGSTFKSYAMGWYRQDPGKERELVAAITVSGGSTYYADSVKGRFTISRDNAKNTVYLMMNSLTPEDTSVYYCAADSVLLKDTGYDYWGQGTQVTVSS
  polyreactivity (PSR sort gate): low polyreactivity

## QVQLVESGGGLVQAGGSLRLTCAASGSTFPVYAMGWSRQAPGKERELVASISSGADTIYADSVKGRFTISRDNAKNTVYLQMNSLKPEDTSVYYCAVYRPGLTYYDYDYWGQGTQVTVSS
  polyreactivity (PSR sort gate): low polyreactivity

## QVQLVESGGGLVQAGGSLRLTCAASGSTFRENAMGWNRQAPGKERELVAAITSGGSTYYADSVKGRFTISRDNAKNTVYLQMNSLKPEDTAVYYGNADLEPYDYWGQGTQVTVSS
  polyreactivity (PSR sort gate): low polyreactivity

## QVQLVESGGGLVQAGGSLRLTCAASGSTFSYYAMGCYRQAPGKERELVAAISTRGSSTYYADSVKGRFTISRDNAKITVYVQMNSLKPEDTAVYYFAVDQYKYDCFYDYYGYTYGYWGQGTQVTVSS
  polyreactivity (PSR sort gate): high polyreactivity

## QVQLVESGGGLVQAGGSLRLTCAASGSTFVNYTMGWYRQAPGKERELVAAIRYRDGSTYYADSVKGRFTISRDNAKNTVYLQMNSLKPEDTAVYYCNTRITQVGDYIYDYWGQGTQVTVSS
  polyreactivity (PSR sort gate): low polyreactivity

## QVQLVESGGGLVQAGGSLRLTCAASGSTFVRYAMGWSRQAPGKERELVAAISRGGRTNYADSVKGRFTISRDNAKNTVYLQMNSLKPEDTAVYDCAKDRNIYYTYDYWGQGTQVTVSS
  polyreactivity (PSR sort gate): low polyreactivity

## QVQLVESGGGLVQAGGSLRLTCAASGSTFVWYAMGWSRQAPGKEREFVATISWSDGSTYYADSVKGRFTISRDNAKNTVYLQMNSLKPEDTAVYYCASDVDRFFTYKYDYWGQGTQVTVSS
  polyreactivity (PSR sort gate): low polyreactivity

## QVQLVESGGGLVQAGGSLRLTCAASGSTFYRYAMGWYRQAPGKERELVAAISTSGGRTYYADSVKGRFTISRDNAKNTVYLQMNSLKPEDTAVYYCAADQYRYYRSTYDYWGQGTQVTVSS
  polyreactivity (PSR sort gate): high polyreactivity
